Results as given in paper PMC9343077 (Research, 2022).

Target: T1, SARS-CoV-2 spike RBD (Arg319-Asn532) fused to a His tag (SARS-CoV-2, UniProt P0DTC2)
T1 construct: also called SARS-CoV-2 spike RBD-His; SARS-CoV-2-RBD-His; not shown: His tag, N-terminal, kept
Assay: radioligand binding
Details: both partners purified

B1: ^68Ga-Nb1159 (nanobody Nb11-59 conjugated to NOTA and radiolabeled with ^68Ga) (VHH)
VHH: EVQLQESGGGLVQPGGSLRLSCAASGFTFSSYDMSWVRQAPGKGLEWVSAINSSGGSTYYADSVKGRFTISRDNAKNTLYLQMNSLKTEDTAVYYCAPSQTYGGSWYWDPIGDWGQGTLVTVSS
notes: also called ^68Ga-NOTA-Nb1159; NOTA-Nb1159 (before labelling)
For B1, the Kd was 25.5 nM.
